Results published in US20100077492A1 (UNIVERSITY OF MASSACHUSETTS, published 2010).

B1: ^32P-labelled XPG-HMK (human XPG with a C-terminal heart muscle kinase recognition sequence tag) (enzyme)
chain: MGVQGLWKLLECSGRQVSPEALEGKILAVDISIWLNQALKGVRDRHGNSIENPHLLTLFHRLCKLLFFRIRPIFVFDGDAPLLKKQTLVKRRQRKDLASSDSRKTTEKLLKTFLKRQAIKTAFRSKRDEALPSLTQVRRENDLYVLPPLQEEEKHSSEEEDEKEWQERMNQKQALQEEFFHNPQAIDIESEDFSSLPPEVKHEILTDMKEFTKRRRTLFEAMPEESDDFSQYQLKGLLKKNYLNQHIEHVQKEMNQQHSGHIRRQYEDEGGFLKEVESRRVVSEDTSHYILIKGIQAKTVAEVDSESLPSSSKMHGMSFDVKSSPCEKLKTEKEPDATPPSPRTLLAMQAALLGSSSEEELESENRRQARGRNAPAAVDEGSISPRTLSAIKRALDDDEDVKVCAGDDVQTGGPGAEEMRINSSTENSDEGLKVRDGKGIPFTATLASSSVNSAEEHVASTNEGREPTDSVPKEQMSLVHVGTEAFPISDESMIKDRKDRLPLESAVVRHSDAPGLPNGRELTPASPTCTNSVSKNETHAEVLEQQNELCPYESKFDSSLLSSDDETKCKPNSASEVIGPVSLQETSSIVSVPSEAVDNVENVVSFNAKEHENFLETIQEQQTTESAGQDLISIPKAVEPMEIDSEESESDGSFIEVQSVISDEELQAEFPETSKPPSEQGEEELVGTREGEAPAESESLLRDNSERDDVDGEPQEAEKDAEDSLHEWQDINLEELETLESNLLAQQNSLKAQKQQQERIAATVTGQMFLESQELLRLFGIPYIQAPMEAEAQCAILDLTDQTSGTITDDSDIWLFGARHVYRNFFNKNKFVEYYQYVDFHNQLGLDRNKLINLAYLLGSDYTEGIPTVGCVTAMEILNEFPGHGLEPLLKFSEWWHEAQKNPKIRPNPHDTKVKKKLRTLQLTPGFPNPAVAEAYLKPVVDDSKGSFLWGKPDLDKIREFCQRYFGWNRTKTDESLFPVLKQLDAQQTQLRIDSFFRLAQQEKEDAKRIKSQRLNRAVTCMLRKEKEAAASEIEAVSVAMEKEFELLDKAKGKTQKRGITNTLEESSSLKRKRLSDSKGKNTCGGFLGETCLSESSDGSSSEDAESSSLMNVQRRTAAKEPKTSASDSQNSVKEAPVKNGGATTSSSSDSDDDGGKEKMVLVTARSVFGKKRRKLRRARGRKRKTRRASV
modifications: ^32P-labeled at the heart muscle kinase (HMK) recognition tag RRASV
notes: The tagged form was used only in the far western and slot blot assays, as the labelled probe in solution; also called ^32P-labeled XPG with a heart muscle kinase (HMK) tag
B2: E. coli Endo III (enzyme, UniProt P0AB83 1-211, looked up)
chain: MNKAKRLEILTRLRENNPHPTTELNFSSPFELLIAVLLSAQATDVSVNKATAKLYPVANTPAAMLELGVEGVKTYIKTIGLYNSKAENIIKTCRILLEQHNGEVPEDRAALEALPGVGRKTANVVLNTAFGWPTIAVDTHIFRVCNRTQFAPGKNVEQVEEKLLKVVPAEFKVDCHHWLILHGRYTCIARKPRCGSCIIEDLCEYKEKVDI
notes: Negative control, immobilised on the membrane

How the values were obtained:
[1] = biological target: T1, human PC4 protein (full length wild type) (human, UniProt P53999 1-127); assay: far western: ^32P-labelled XPG-HMK probe on PC4 transferred from SDS-PAGE
T1 construct: Full length wild type PC4 expressed in E. coli BL21(DE3) and purified by the methods of Ge et al; It was immobilised on the membrane, denatured after SDS-PAGE in the far western and native in the slot blot
Procedure: (§1) For “far western” analysis, human PC4 protein (1.5 μg), human Nth1 protein (2.1 μg) and E. coli EndoIII (3 μg) were separated on SDS-PAGE (pre-cast 4-20% gel, BioRad), transferred to a PVDF membrane, and stained with Ponceau S to visualize the proteins on the membrane. The membrane was then blocked with a blocking buffer (25 mM Hepes-KOH (pH 7.7), 25 mM NaCl, 5 mM MgCl₂, 1 mM DTT, 1% nonfat milk and 0.1% NP-40) for 2 hours at 4° C. and probed overnight at 4° C. on a rocker with blocking buffer containing 150 mM KCl and ³²P-labeled XPG with a heart muscle kinase (HMK) tag. The membrane was washed with washing buffer (25 mM Hepes-KOH (pH 7.7), 25 mM NaCl, 150 mM KCl, 5 mM MgCl2, 1 mM DTT, 1% nonfat milk and 0.5% NP-40), and interactions were visualized by both phosphorimager and autoradiography. For slot-blot analysis 1 μg each of PC4, hNth1 and EndoIII were applied to a nitrocellulose membrane, and the membrane was processed as above.
(§2) Since Sub1 evidently functions in a pathway involving Rad2, we tested the possibility of direct interaction between the human PC4 and XPG proteins by “far western” analysis. To test PC4-XPG interaction, ³²P-labeled XPG was used as a probe for PC4 transferred onto a membrane from an SDS-PAGE gel. […]

[2] = biological target: B1; assay: far western: ^32P-labelled XPG-HMK probe on proteins transferred from SDS-PAGE
Procedure: as §1, §2

Binder	binding result [1]	binding result [2]
B1	binds	–
B2	–	no binding (tested: 3 µg EndoIII on the membrane)
